# B1: Cyclic AMP-dependent transcription factor ATF-4 (Homo sapiens), P18848 (parent)
# chain: MTEMSFLSSEVLVGDLMSPFDQSGLGAEESLGLLDDYLEVAKHFKPHGFSSDKAKAGSSEWLAVDGLVSPSNNSKEDAFSGTDWMLEKMDLKEFDLDALLGIDDLETMPDDLLTTLDDTCDLFAPLVQETNKQPPQTVNPIGHLPESLTKPDQVAPFTFLQPLPLSPGVLSSTPDHSFSLELGSEVDITEGDRKPDYTAYVAMIPQCIKEEDTPSDNDSGICMSPESYLGSPQHSPSTRGSPNRSLPSPGVLCGSARPKPYDPPGEKMVAAKVKGEKLDKKLKKMEQNKTAATRYRQKKRAEQEALTGECKELEKKNEALKERADSLAKEIQYLKDLIEEVRKARGKKRVP
# Variants of: B1
# Conditions: with BTRC
row,Variant,effect of a mutation on the interaction
1,MTEMSFLSSEVLVGDLMSPFDQSGLGAEESLGLLDDYLEVAKHFKPHGFSSDKAKAGSSEWLAVDGLVSPSNNSKEDAFSGTDWMLEKMDLKEFDLDALLGIDDLETMPDDLLTTLDDTCDLFAPLVQETNKQPPQTVNPIGHLPESLTKPDQVAPFTFLQPLPLSPGVLSSTPDHSFSLELGSEVDITEGDRKPDYTAYVAMIPQCIKEEDTPSDNDNGICMSPESYLGSPQHSPSTRGSPNRSLPSPGVLCGSARPKPYDPPGEKMVAAKVKGEKLDKKLKKMEQNKTAATRYRQKKRAEQEALTGECKELEKKNEALKERADSLAKEIQYLKDLIEEVRKARGKKRVP [S219N],decreasing interaction
2,MTEMSFLSSEVLVGDLMSPFDQSGLGAEESLGLLDDYLEVAKHFKPHGFSSDKAKAGSSEWLAVDGLVSPSNNSKEDAFSGTDWMLEKMDLKEFDLDALLGIDDLETMPDDLLTTLDDTCDLFAPLVQETNKQPPQTVNPIGHLPESLTKPDQVAPFTFLQPLPLSPGVLSSTPDHSFSLELGSEVDITEGDRKPDYTAYVAMIPQCIKEEDTPSDNNSGICMSPESYLGSPQHSPSTRGSPNRSLPSPGVLCGSARPKPYDPPGEKMVAAKVKGEKLDKKLKKMEQNKTAATRYRQKKRAEQEALTGECKELEKKNEALKERADSLAKEIQYLKDLIEEVRKARGKKRVP [D218N],decreasing interaction

# Variants of: B1
# Conditions: with BTRC
# Remark: another data set of the same source
row,Variant,effect of a mutation on the interaction
1,MTEMSFLSSEVLVGDLMSPFDQSGLGAEESLGLLDDYLEVAKHFKPHGFSSDKAKAGSSEWLAVDGLVSPSNNSKEDAFSGTDWMLEKMDLKEFDLDALLGIDDLETMPDDLLTTLDDTCDLFAPLVQETNKQPPQTVNPIGHLPESLTKPDQVAPFTFLQPLPLSPGVLSSTPDHSFSLELGSEVDITEGDRKPDYTAYVAMIPQCIKEEDTPSDNDNGICMSPESYLGSPQHSPSTRGSPNRSLPSPGVLCGSARPKPYDPPGEKMVAAKVKGEKLDKKLKKMEQNKTAATRYRQKKRAEQEALTGECKELEKKNEALKERADSLAKEIQYLKDLIEEVRKARGKKRVP [S219N],disrupting interaction

# Source: IntAct's records for PubMed 11238952
